Data reported in paper PMC5019122.

Target: BG505-10MUT (HIV-1 (isolate BG505))
Test: SPR

B1: MutHGLL121 (fully mature PGT121 IgH with predicted germline IgL) (antibody, V domains shown)
VH: QMQLQESGPGLVKPSETLSLTCSVSGASISDSYWSWIRRSPGKGLEWIGYVHKSGDTNYSPSLKSRVNLSLDTSKNQVSLSLVAATAADSGKYYCARTLHGRRIYGIVAFNEWFTYFYMDVWGNGTQVTVSS
VL: SYVLTQPPSVSVAPGQTARITCGGNNIGSKSVHWYQQKPGQAPVLVVYDDSDRPSGIPERFSGSNSGNTATLTISRVEAGDEADYYCQVWDSSSDHPWVFGGGTKLTVL
Kd: 47 µM
